Experimental data from US20080206190A1 (CYTHERIS, published 2008).

T1: PHA.L, lectin from Phaseolus vulgaris (Phaseolus vulgaris, UniProt P05087 21-272)
T1 construct: Lectin coated on the plate
T1 sequence (looked up): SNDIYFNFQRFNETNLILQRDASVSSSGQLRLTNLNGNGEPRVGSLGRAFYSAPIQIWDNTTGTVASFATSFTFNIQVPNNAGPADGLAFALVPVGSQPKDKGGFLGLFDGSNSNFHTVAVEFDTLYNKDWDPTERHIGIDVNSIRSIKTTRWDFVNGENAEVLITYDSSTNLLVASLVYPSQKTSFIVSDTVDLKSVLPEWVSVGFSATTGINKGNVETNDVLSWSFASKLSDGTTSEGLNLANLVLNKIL

T2: UEA.I, lectin from Ulex europeus (Ulex europeus, UniProt P22972 1-243)
T2 construct: Lectin coated on the plate
T2 sequence (looked up): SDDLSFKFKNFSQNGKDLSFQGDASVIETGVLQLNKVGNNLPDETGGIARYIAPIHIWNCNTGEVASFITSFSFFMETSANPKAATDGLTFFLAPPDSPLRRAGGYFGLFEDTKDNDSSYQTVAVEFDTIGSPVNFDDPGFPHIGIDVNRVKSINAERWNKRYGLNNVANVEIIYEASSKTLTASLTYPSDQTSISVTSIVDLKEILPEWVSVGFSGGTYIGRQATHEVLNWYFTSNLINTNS

B1: ABA, lectin from Agaricus bisporus (other, UniProt Q00022 2-143, looked up)
chain: TYTISIRVYQTTPKGFFRPVERTNWKYANGGTWDEVRGEYVLTMGGSGTSGSLRFVSSDTDESFVATFGVHNYKRWCDIVTNLTNEQTALVINQEYYGVPIRDQARENQLTSYNVANAKGRRFAIEYTVTEGDNLKANLIIG
notes: Lectin coated on the plate
B2: purified CHO-derived recombinant human IL-7 (highly glycosylated / hyperglycosylated hIL-7) (ligand)
chain: DCDIEGKDGKQYESVLMVSIDQLLDSMKEIGSNCLNNEFNFFKRHICDANKEGMFLFRAARKLRQFLKMNSTGDFDLHLLKVSEGTTILLNCTGQVKGRKPAALGEAQPTKSLEENKSLKEQKKLNDLCFLKRLLQEIKTCWNKILMGTKEH
modifications: complex N-linked oligosaccharides at Asn 70, 91 and 116; O-glycan at Thr 110; batch is a mixture of fully and partially glycosylated proteins
notes: also called CHO-derived hIL-7; purified IL-7 protein

Assays:
Assay in all cases: lectin-coated plate ELISA; bound IL-7 shown by biotinylated anti-hIL-7 antibody and streptavidin-peroxidase
[1] = molecular target: B2
Description: (§1) An array of lectins having affinity for N- and O-glycan structures was selected and used to coat 96 well microplates. Identical amounts of recombinant purified IL-7 preparations were incubated into lectin coated microplate wells. During this step, according to the affinity of a given lectin to the glycan decoration of IL-7, different amount of IL-7 were kept bound to the lectin. Revelation was conducted by incubating an IL-7 specific antibody coupled to Biotin.
(§2) Eight different lectins were used to characterize the IL-7 purified samples. Each lectin specifically recognizes sugar moieties.

[2] = molecular target: T1, PHA.L, lectin from Phaseolus vulgaris
Description: as §1, §2

[3] = molecular target: T2, UEA.I, lectin from Ulex europeus
Description: as §1, §2

Binder	binding result [1]	binding result [2]	binding result [3]
B1	binds	–	–
B2	–	binds	binds
